# Test results as given in the supplement of paper PMC11246515.
# ± gives the standard deviation of the averaged measurements.
# Test: total protein half-life in vivo (active degradation + dilution); higher = more stable protein
# [1] = E. coli NCM3722 delta-clpP delta-lon delta-hslV, growth: N-lim chemostat, doubling time 6 h
# [2] = E. coli NCM3722 delta-clpP, growth: N-lim chemostat, doubling time 6 h
# [3] = E. coli NCM3722 delta-hslV, growth: N-lim chemostat, doubling time 6 h
# [4] = E. coli NCM3722 delta-lon, growth: N-lim chemostat, doubling time 6 h
# [5] = E. coli NCM3722 delta-smpB, growth: N-lim chemostat, doubling time 6 h
# [6] = wild type E. coli NCM3722, growth: C-lim chemostat, doubling time 6 h
# [7] = wild type E. coli NCM3722, growth: C-lim chemostat, doubling time 12 h
# [8] = wild type E. coli NCM3722, growth: N-lim chemostat, doubling time 6 h
# [9] = wild type E. coli NCM3722, growth: N-lim chemostat, doubling time 12 h
# [10] = wild type E. coli NCM3722, growth: P-lim chemostat, doubling time 6 h
# [11] = wild type E. coli NCM3722, growth: P-lim chemostat, doubling time 12 h
# [12] = wild type E. coli NCM3722, growth: C-lim chemostat, doubling time 3 h
Sequence,total protein half-life in vivo [1] [h],total protein half-life in vivo [2] [h],total protein half-life in vivo [3] [h],total protein half-life in vivo [4] [h],total protein half-life in vivo [5] [h],total protein half-life in vivo [6] [h],total protein half-life in vivo [7] [h],total protein half-life in vivo [8] [h],total protein half-life in vivo [9] [h],total protein half-life in vivo [10] [h],total protein half-life in vivo [11] [h],total protein half-life in vivo [12] [h]
MNKAIKVSLYISFVLIICALSKNIMMLNTSDFGRAIKPLIEDIPAFTYDLPLLYKLKGHIDSIDSYEYISSYSYILYTYVLFISIFTEYLDARVLSLFLKVIYIYSLYAIFTSYIKTERYVTLFTFFILAFLMCSSSTLSMFASFYQEQIVIIFLPFLVYSLTCKNNKSMLLLFFSLLIISTAKNQFILTPLIVYSYYIFFDRHKLIIKSVICVVCLLASIFAISYSKGVVELNKYHATYFGSYLYMKNNGYKMPSYVDDKCVGLDAWGNKFDISFGATPTEVGTECFESHKDETFSNALFLLVSKPSTIFKLPFDDGVMSQYKENYFHVYKKLHVIYGESNILTTITNIKDNIFKNIRFISLLLFFIASIFIRNNKIKASLFVVSLFGISQFYVSFFGEGYRDLSKHLFGMYFSFDLCLYITVVFLIYKIIQRNQDNSDVKH,5.64,6.29 ± 1.9,5.24 ± 0.26,4.87 ± 0.47,4.88 ± 0.4,6.387 ± 0.036,12,5.59 ± 0.57,9.92 ± 2.3,5.62 ± 0.53,10.2 ± 1.1,
MNKDEAGGNWKQFKGKVKEQWGKLTDDDMTIIEGKRDQLVGKIQERYGYQKDQAEKEVVDWETRNEYRW,6.99 ± 1.3,4.33 ± 0.086,4.42,6.177 ± 0.038,3.64 ± 0.25,,11 ± 3.5,3.59 ± 0.14,6.53 ± 1.5,3.72 ± 0.58,6.92 ± 0.27,
MNKEQSADDPSVDLIRVKNMLNSTISMSYPDVVIACIEHKVSLEAFRAIEAALVKHDNNMKDYSLVVD,> 8,,> 8,> 8,,,9.95,,10.8 ± 6,4.21,,2.94 ± 0.043
MNKFLFAAALIVSGLLVGCNQLTQYTITEQEINQSLAKHNNFSKDIGLPGVADAHIVLTNLTSQIGREEPNKVTLTGDANLDMNSLFGSQKATMKLKLKALPVFDKEKGAIFLKEMEVVDATVQPEKMQTVMQTLLPYLNQALRNYFNQQPAYVLREDGSQGEAMAKKLAKGIEVKPGEIVIPFTD [P0AB26],,,6.63 ± 0.84,6.72 ± 0.38,6.38 ± 0.15,5.37 ± 0.43,11.9 ± 1.5,5.75 ± 0.34,13.4 ± 0.43,6.01 ± 0.25,12.36 ± 0.048,3.55 ± 0.36
MNKILLQCDNLCKRYQEGSVQTDVLHNVSFSVGEGEMMAIVGSSGSGKSTLLHLLGGLDTPTSGDVIFNGQPMSKLSSAAKAELRNQKLGFIYQFHHLLPDFTALENVAMPLLIGKKKPAEINSRALEMLKAVGLDHRANHRPSELSGGERQRVAIARALVNNPRLVLADEPTGNLDARNADSIFQLLGELNRLQGTAFLVVTHDLQLAKRMSRQLEMRDGRLTAELSLMGAE,6.92,6.37 ± 0.67,,6.32 ± 0.21,,6.42 ± 0.012,10.8 ± 0.94,5.78 ± 0.77,13.1 ± 1.3,5.48 ± 0.27,,3.22
MNKNMAGILSAAAVLTMLAGCTAYDRTKDQFVQPVVKDVKKGMSRAQVAQIAGKPSSEVSMIHARGTCQTYILGQRDGKAETYFVALDDTGHVINSGYQTCAEYDTDPQAAK [P0ADB1],5.54 ± 0.094,5.7 ± 0.36,,,5.74 ± 0.22,6.14 ± 0.68,10.4 ± 1.6,,12.3 ± 2.4,5.73 ± 0.26,12.6 ± 0.59,3.03 ± 0.22
MNKSRQKELTRWLKQQSVISQRWLNISRLLGFVSGILIIAQAWFMARILQHMIMENIPREALLLPFTLLVLTFVLRAWVVWLRERVGYHAGQHIRFAIRRQVLDRLQQAGPAWIQGKPAGSWATLVLEQIDDMHDYYARYLPQMALAVSVPLLIVVAIFPSNWAAALILLGTAPLIPLFMALVGMGAADANRRNFLALARLSGHFLDRLRGMETLRIFGRGEAEIESIRSASEDFRQRTMEVLRLAFLSSGILEFFTSLSIALVAVYFGFSYLGELDFGHYDTGVTLAAGFLALILAPEFFQPLRDLGTFYHAKAQAVGAADSLKTFMETPLAHPQRGEAELASTDPVTIEAEELFITSPEGKTLAGPLNFTLPAGQRAVLVGRSGSGKSSLLNALSGFLSYQGSLRINGIELRDLSPESWRKHLSWVGQNPQLPAATLRDNVLLARPDASEQELQAALDNAWVSEFLPLLPQGVDTPVGDQAARLSVGQAQRVAVARALLNPCSLLLLDEPAASLDAHSEQRVMEALNAASLRQTTLMVTHQLEDLADWDVIWVMQDGRIIEQGRYAELSVAGGPFATLLAHRQEEI,,6.56 ± 0.17,5.94 ± 0.14,6.1322 ± 0.0016,5.95 ± 0.69,5.88 ± 0.21,,6.42 ± 0.35,12.7 ± 1.1,6.33 ± 0.11,11.8 ± 0.91,3.54 ± 0.42
MNKTAIALLALLASSASLAATPWQKITQPVPGSAQSIGSFSNGCIVGADTLPIQSEHYQVMRTDQRRYFGHPDLVMFIQRLSSQVSNLGMGTVLIGDMGMPAGGRFNGGHASHQTGLDVDIFLQLPKTRWTSAQLLRPQALDLVSRDGKHVVSTLWKPEIFSLIKLAAQDKDVTRIFVNPAIKQQLCLDAGTDRDWLRKVRPWFQHRAHMHVRLRCPADSLECEDQPLPPSGDGCGAELQSWFEPPKPGTTKPEKKTPPPLPPSCQALLDEHVI [P0C0T5],,,0.831,,,,,,,,,0.792
MNKTLIAAAVAGIVLLASNAQAQTVPEGYQLQQVLMMSRHNLRAPLANNGSVLEQSTPNKWPEWDVPGGQLTTKGGVLEVYMGHYMREWLAEQGMVKSGECPPPYTVYAYANSLQRTVATAQFFITGAFPGCDIPVHHQEKMGTMDPTFNPVITDDSAAFSEQAVAAMEKELSKLQLTDSYQLLEKIVNYKDSPACKEKQQCSLVDGKNTFSAKYQQEPGVSGPLKVGNSLVDAFTLQYYEGFPMDQVAWGEIKSDQQWKVLSKLKNGYQDSLFTSPEVARNVAKPLVSYIDKALVTDRTSAPKITVLVGHDSNIASLLTALDFKPYQLHDQNERTPIGGKIVFQRWHDSKANRDLMKIEYVYQSAEQLRNADALTLQAPAQRVTLELSGCPIDADGFCPMDKFDSVLNEAVK,5.71 ± 0.47,,6.81 ± 0.17,6.9 ± 0.04,5.96 ± 0.12,6.07 ± 0.17,12 ± 1.7,6.05 ± 0.63,11.1 ± 1.5,6.4 ± 1.7,12.3 ± 1.5,3.51 ± 0.45
